This assay deals with human CD300a expressed on Hek293T cells (HekCD300a) (human). The experiment in a line: cell-based or functional assay.

The substance “goat polyclonal antibody to CD300a (AF2640)” returned an inhibition of DV2 JAM infection of HekCD300a cells (flow cytometry) of 80%.
